This passage reports binding result and Kd results from article PMC7470945, “DNA backbone interactions impact the sequence specificity of DNA sulfur-binding domains: revelations from structural analyses”.

Holding throughout (assay): fluorescence polarization; FP: 20 mM Tris-HCl pH 8.0, 50 mM NaCl, 5% glycerol, 1 mM DTT, 5 nM probe, room temperature; EMSA: 20 mM Tris-HCl pH 8.0, 100 mM NaCl, 5% glycerol, room temperature, protein 4x DNA
The target in data set [1] is SBDSpr (SBD of SprMcrA) (Streptomyces pristinaespiralis, UniProt A0A0M4DML1 1-165). Particulars: protein: recombinant, tags: N-terminal 6xHis (pET28a), blunt; for binding result: label: 5'-FAM on one strand; for Kd: label: 5'-FAM on one strand (FP).
Data set [2] deals with T1, SBDSco E156R (Streptomyces coelicolor, UniProt Q9L0M9 90-250, E156R).
T1 sequence: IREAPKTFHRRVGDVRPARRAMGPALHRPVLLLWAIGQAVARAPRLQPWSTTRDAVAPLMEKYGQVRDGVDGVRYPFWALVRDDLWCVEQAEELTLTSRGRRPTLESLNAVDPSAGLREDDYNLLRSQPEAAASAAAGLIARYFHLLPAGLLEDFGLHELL
Conditions: protein: recombinant; tags: 6xHis; label: 5'-FAM on one strand (FP); blunt.

The target in data set [3] is T2, SBDSco E156D (Streptomyces coelicolor, UniProt Q9L0M9 90-250, E156D).
T2 sequence: T1 sequence with R67D
Conditions: protein: recombinant; tags: 6xHis; label: 5'-FAM on one strand (FP); blunt.

Data set [4] has as its target T3, SBDSco E156R/D157R (Streptomyces coelicolor, UniProt Q9L0M9 90-250, E156R;D157R).
T3 sequence: T1 sequence with D68R
Particulars: protein: recombinant; tags: 6xHis; label: 5'-FAM on one strand (FP); blunt.

In data set [5] the target is T4, SBDSco (SBD of ScoMcrA) (Streptomyces coelicolor, UniProt Q9L0M9 90-250).
T4 sequence: T1 sequence with R67E
Particulars: protein: recombinant; tags: N-terminal 6xHis (pET28a); label: 5'-FAM on one strand (FP); blunt.

Data set [6] concerns the target T5, SBDSco E156K (Streptomyces coelicolor, UniProt Q9L0M9 90-250, E156K).
T5 sequence: T1 sequence with R67K
Particulars: protein: recombinant; tags: 6xHis; label: 5'-FAM on one strand (FP); blunt.

The target of data set [7] is T6, SBDSco E156Q (Streptomyces coelicolor, UniProt Q9L0M9 90-250, E156Q).
T6 sequence: T1 sequence with R67Q
Conditions: protein: recombinant; tags: 6xHis; label: 5'-FAM on one strand (FP); blunt.

Data set [8] concerns the target T7, SBDSco E156L (Streptomyces coelicolor, UniProt Q9L0M9 90-250, E156L).
T7 sequence: T1 sequence with R67L
Conditions: protein: recombinant; tags: 6xHis; label: 5'-FAM on one strand (FP); blunt.

Where a chain is given by its changes, count along the chain named.

B1: PT-GATC-10 SP (hemi-PT) (dsDNA)
DNA 1: GATGATCCTA
DNA 2: TAGGATCATC
modifications: SP phosphorothioate between G4 and A5 of strand 1
For B1, the binding result in data set [1] is listed as “no binding”.

B2: PT-CCA-10 SP (hemi-PT) (dsDNA)
DNA 1: GAACCCAAGC
DNA 2: GCTTGGGTTC
modifications: SP phosphorothioate between C5 and C6 of strand 1
Regarding B2, in data set [1], the binding result is reported as “no binding”.

B3: PT-GAAC-10 RP (hemi-PT) (dsDNA)
DNA 1: GGCGAACGTG
DNA 2: CACGTTCGCC
modifications: RP phosphorothioate between G4 and A5 of strand 1
The term Kd denotes the constant that tells how readily two partners part at equilibrium. On to B3, for which the Kd is 267 ± 15 nM in data set [2]; 846 ± 74 nM in data set [3]; 183 ± 9 nM in data set [4]; 567 ± 37 nM in data set [5]; 297 ± 19 nM in data set [6]; 618 ± 43 nM in data set [7]. Also, the Kd in data set [1] was 95 ± 25 nM; in data set [8] it was 499 ± 37 nM.

B4: PT-GATC-10 RP (hemi-PT) (dsDNA)
DNA 1: GATGATCCTA
DNA 2: TAGGATCATC
modifications: RP phosphorothioate between G4 and A5 of strand 1
Turning to B4, the Kd in data set [2] amounted to 346 ± 17 nM; in data set [3], 1320 ± 99 nM; in data set [4] it was 192 ± 12 nM; in data set [5], 1090 ± 58 nM; in data set [6], 370 ± 14 nM; in data set [7], 1020 ± 49 nM. The results for the Kd in data set [1] and in data set [8] were 38 ± 8 nM and 791 ± 42 nM, respectively.

B5: PT-CCA-10 RP (hemi-PT) (dsDNA)
DNA 1: GAACCCAAGC
DNA 2: GCTTGGGTTC
modifications: RP phosphorothioate between C5 and C6 of strand 1
With B5, the binding result in data set [1] is “no binding”.
